Data on two molecules can be found in publication PMC2953525, “Subtle Alterations in PCNA-Partner Interactions Severely Impair DNA Replication and Repair” (PLoS Biology, 2010).

Assay [1] deals with CAN1 gene. The assay can be described thus: Spontaneous mutation rate, CAN1 reporter assay, fluctuation analysis. The assay is classed as cell-based, yeast. The note with it: for Spontaneous Mutation Rate Can^R (Fold Increase): Table 1, compared to the WT POL30 strain. The text has this: It was previously shown that PCNA contains another site of regulation (i.e. K164) that is modulated by ubiquitination or SUMOylation (Figure 1B) and that is crucial for the recruitment of TLS polymerases,[37]. To test whether the K164 regulatory site is active in the PCNA mutant strains, we examined the spontaneous mutation rate in these strains (Table 1). Increase in spontaneous mutation rate can indicate the recruitment of TLS polymerases to PCNA through K164 ubiquitination,[37]. Alternatively, these mutants can indirectly affect the spontaneous mutation rate by reducing DNA replication processivity and causing replication fork stalling, thereby leading to TLS recruitment. These mutants can also indirectly alter Pol-δ or Pol-ε proofreading leading to TLS recruitment. We measured the spontaneous mutation rate using the CAN1 reporter assay by monitoring the ability of the PCNA mutant strains to grow in the presence of canavanine, a toxic analogue of arginine. […] To examine whether Polζ, the major TLS polymerase,[37], is recruited in vivo to PCNA mutants showing increased affinity for Rad27 and Pol32 (pol30-Rad27E6 and pol30-Pol32E5, Table 1) upon K164 ubiquitination, we measured the spontaneous mutation rates of these mutant strains on the background of either mutated rev3 encoding the catalytic subunit of Polζ or mutated rad18 encoding the K164 ubiquitin ligase or K164R mutation (Figure 7, Table 2).
Novel haploids containing PCNA mutants were generated using the plasmid shuffling method. Briefly, a pol30::KanMX magic marker heterozygote diploid strain BY4743 (Open Biosystem) was transformed with plasmid pRS316-POL30. Following dissection of the diploid, a haploid containing the CAN+ gene and plasmid pRS316-POL30 as a sole source of PCNA was generated. This host strain was transformed with selected pRS315-pol30 mutants, plated on SC-Ura-Leu plates, followed by replica plating to SC-Leu+5FOA plates. Haploids, containing PCNA mutants as a sole source, were further verified by plating on either SC-Leu or SC-Ura plates. For testing selected PCNA mutants, a haploid containing rad27::HYG, rad30::HYG, pol32::HYG, msh6::HYG, or ung1::HYG were generated using plasmid pAG32 by conventional genetic approaches. Growth of the PCNA mutant strains in the presence of 120 mM HU (Toronto Research Chemicals) or 0.02% MMS (Sigma) was performed as described. To examine the effects of partner overexpression on pol30 mutant strains, these strains were transformed with various plasmids containing GST-tagged PCNA partner encoding genes under the control of a GAL1/10 inducible promoter, as previously described. Overnight cultures were plated in serial dilutions on SC-Ura containing either glucose or galactose with or without DNA-damaging agents, as described above.
The mutation rates for the different pol30 mutant strains described in this study were determined by fluctuation test analysis using the Lea and Coulson method,[48]. The different strains were plated as single colonies on SC-Leu plates and allowed to grow for 3 d at 30°C. At least 25 single colonies from each strain were excised from the plate and resuspended in 1 ml of sterile water to an O.D600 of 0.7. Appropriate dilutions of the cells were then plated on SC-Leu and SC-Leu-Arg+canavanine ([…]) to obtain the number of viable cells (Nt) and the number of canavanine-resistant cells (r), respectively. Using the Lea and Coulson method, the number of mutations (m) per colony was derived from the number of canavanine resistant-colonies (r) across parallel cultures, using the following equation: […]. The m values were then used to calculate the mutation rate, M, using the following equation: M = m/Nt, where Nt is the average number of viable cells per plating. The different M values were sorted to obtain the median. […]
On the technique in general: A reporter such as luciferase makes a cellular process visible.

The subject of assay [2] is Ung1. Kind of assay: Yeast two hybrid (Y2H) analysis of PCNA-partner interaction. The assay is classed as binding. The note with it: YRG2 strain, growth on selective agar plates lacking histidine; growth similar to WT PCNA denoted as 1. As to the method:
(§1) For the Y2H assay, we used the YRG2 host strain, shown to be highly efficient in coupling the strength of protein-protein interactions with growth on media lacking histidine. Selected PCNA mutants were characterized for their ability to bind each of 12 main PCNA partners to obtain specificity profiles (Table 1, Table S1, and Figures S4–S5). […] However, in some cases a strong trade-off between the bindings of different partners was observed.
(§2) Y2H analysis was performed using the Yeast Two Hybrid Phagemid vector kit (Stratagene), following the manufacturer's instructions. The pAD-PCNA-WT/mutant plasmids were used as bait while plasmids encoding 12 different PCNA partners (Table 1 and Table S1) were used as prey. The YRG2 host strain (Stratagene) was cotransformed with pAD-PCNA WT/mutant and pBD-partner plasmids in all possible combinations using the LiAC method. Single transformants were grown in liquid SC-Leu-Trp to O.D600 10, washed twice with DDW, and diluted to an initial OD600 of 0.3. A series of 10-fold serial dilutions was then spotted onto selective SC-Leu-Trp-His plates and incubated at 30°C for 3 d. For quantitative Y2H, the generation time of the indicated mutants and their respective partners were calculated from their growth curves in liquid SC-Leu-Trp-His media. Cells were grown overnight in SC-Leu-Trp, washed twice with ddH2O, and diluted by a factor of 1∶50 into 10 ml of pre-warmed SC-Leu-Trp-His. O.D600 measurements of the cultures were taken at the indicated time; the generation time (τ) was calculated from the growth curves according to the equation ODt = OD0×2^t/τ. The generation time calculated for each culture is an average of at least 3 independent experiments.

Assay [3] deals with Pol32. The assay is described as above. It counts as binding. Here is the method: as §1, §2
The subject of assay [4] is Rad27. The assay is described as above. It counts as binding. As to the method: as §1, §2
For assay [5], the system named is Rad30. The assay is described as above. The settings on record: YRG2 strain, growth on selective agar plates lacking histidine; growth similar to WT PCNA denoted as 1. It counts as binding. Here is the method:
as §1, §2

In assay [6] the test system is Msh6. The assay is described as above. It counts as binding. The settings on record: YRG2 strain, growth on selective agar plates lacking histidine; growth similar to WT PCNA denoted as 1. As to the method: as §1, §2
Setting [7] is: YRG2 strain, growth on selective agar plates lacking histidine, growth similar to WT PCNA denoted as 1.
Setting [8] is: footnote c: generation time in liquid selective media lacking histidine relative to cells expressing WT PCNA, average of at least 3 independent experiments.

Positions count from the first letter of the chain named.

B1: pol30-Rad27E6: PCNA mutant evolved for Rad27, IDCL sequence DGDYDILKIREL (protein)
chain: MLEAKFEEASLFKRIIDGFKDCVQLVNFQCKEDGIIAQAVDDSRVLLVSLEIGVEAFQEYRCDHPVTLGMDLTSLSKILRCGNNTDTLTLIADNTPDSIILLFEDTKKDRIAEYSLKLMDGDYDILKIRELQYDSTLSLPSSEFSKIVRDLSQLSDSINIMITKETIKFVADGDIGSGSVIIKPFVDMEHPETSIKLEMDQPVDLTFGAKYLLDIIKGSSLSDRVGIRLSSEAPALFQFDLKSGFLQFFLAPKFNDEE
modifications: left off: Gal4 activation domain, end not stated, kept
On to B1, for which the “Spontaneous Mutation Rate Can^R (Fold Increase)” value in assay [1] is on record as 8 fold. In assay [1] (Table 2, median, brackets = 95% confidence interval, at least 25 independent determinations), the “Mutation Rate (CAN1 locus)” value was 1.2×10^−6 [8.0, 13.9]. Further, the “Binding of PCNA Mutants to Target Partners: Ung1 (Y2H)” value in assay [2] is 1. The “Binding of PCNA Mutants to Target Partners: Pol32 (Y2H)” value in assay [3] (setting [7]) is recorded as 1. Also, the “Binding of PCNA Mutants to Target Partners: Rad27, fold increase or decrease (quantitative Y2H)” value in assay [4] (setting [8]) is recorded as 1.5 ^c fold. Further, the “Binding of PCNA Mutants to Target Partners: Rad30 (Y2H)” value in assay [5] is recorded as 1. For the same molecule, in assay [6], the “Binding of PCNA Mutants to Target Partners: Msh6 (Y2H)” value is reported as 1.

B2: pol30-Pol32E5: PCNA mutant evolved for Pol32, IDCL sequence DADNDFLKISEL (protein)
chain: B1 chain with G121A, Y123N, I125F, R129S
modifications: left off: Gal4 activation domain, end not stated, kept
B2: in assay [1], the “Spontaneous Mutation Rate Can^R (Fold Increase)” value was determined as 13.3 fold. Besides, the “Fold Increase Relative to WT (mutation rate, CAN1 locus)” value in assay [1] (Table 2) is 13 fold. Further, in assay [2], the “Binding of PCNA Mutants to Target Partners: Ung1 (Y2H)” value was determined as 1. The “Binding of PCNA Mutants to Target Partners: Pol32, fold increase or decrease (quantitative Y2H)” value in assay [3] (setting [8]) is 1.5 ^c fold. Also, the “Binding of PCNA Mutants to Target Partners: Rad27 (Y2H)” value in assay [4] (setting [7]) stood at 1. Besides, in assay [5], the “Binding of PCNA Mutants to Target Partners: Rad30 (Y2H)” value amounted to 1. The “Binding of PCNA Mutants to Target Partners: Msh6 (Y2H)” value in assay [6] is given as 1.
